Patent US20250312479A1

Molecular target: CD2 (human) (UniProt P06729)
Assay: dTomato EVs from cells stably expressing the codon-optimized scFv on Jurkat T cells, flow cytometry

Sequence of UniProt P06729 (P06729 25-351): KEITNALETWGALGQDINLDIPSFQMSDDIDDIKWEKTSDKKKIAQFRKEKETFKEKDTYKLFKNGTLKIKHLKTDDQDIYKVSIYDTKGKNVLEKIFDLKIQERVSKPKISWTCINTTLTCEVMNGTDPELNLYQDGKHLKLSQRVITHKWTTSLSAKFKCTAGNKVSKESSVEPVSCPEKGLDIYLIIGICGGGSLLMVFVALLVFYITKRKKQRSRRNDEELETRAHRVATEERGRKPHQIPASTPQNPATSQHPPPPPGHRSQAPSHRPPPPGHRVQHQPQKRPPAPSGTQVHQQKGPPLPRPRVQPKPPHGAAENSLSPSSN

fold increase of EV binding over non-targeted EVs: > 100 fold
B1: anti-CD2 scFv displayed on EVs via the PDGFR transmembrane domain, helical (α-helix) linker (scFv)
scFv: DYKDHDGDYKDHDIDYKDDDDKNIMMTQSPSSLAVSAGEKVTMTCKSSQSVLYSSNQKNYLAWYQQKPGQSPKLLIYWASTRESGVPDRFTGSGSGTDFTLTISSVQPEDLAVYYCHQYLSSHTFGGGTKLEIKRGGGGSGGGGSGGGGSQLQQPGAELVRPGSSVKLSCKASGYTFTRYWIHWVKQRPIQGLEWIGNIDPSDSETHYNQKFKDKATLTVDKSSGTAYMQLSSLTSEDSAVYYCATEDLYYAMEYWGQGTSVTVSSDQSNSEEAKKEEAKKEEAKKSNSAVGQDTQEVIVVPHSLPFKVVVISAILALVVLTIISLIILIMLWQKKPR
